These results are taken from article doi:10.1101/2021.01.21.427566, “Gradual opening of Smc arms in prokaryotic condensin” (bioRxiv, 2021).

B1: Smc^3S(R643C, E1118Q) (natural protein, B. subtilis, UniProt P51834 1-1186, looked up)
chain: MFLKRLDVIGFKSFAERISVDFVKGVTAVVGPNGSGKSNITDAIRWVLGEQSARSLRGGKMEDIIFAGSDSRKRLNLAEVTLTLDNDDHFLPIDFHEVSVTRRVYRSGESEFLINNQPSRLKDIIDLFMDSGLGKEAFSIISQGKVEEILSSKAEDRRSIFEEAAGVLKYKTRKKKAENKLFETQDNLNRVEDILHELEGQVEPLKIQASIAKDYLEKKKELEHVEIALTAYDIEELHGKWSTLKEKVQMAKEEELAESSAISAKEAKIEDTRDKIQALDESVDELQQVLLVTSEELEKLEGRKEVLKERKKNAVQNQEQLEEAIVQFQQKETVLKEELSKQEAVFETLQAEVKQLRAQVKEKQQALSLHNENVEEKIEQLKSDYFELLNSQASIRNELQLLDDQMSQSAVTLQRLADNNEKHLQERHDISARKAASETEFARIEQEIHSQVGAYRDMQTKYEQKKRQYEKNESALYQAYQYVQQARSKKDMLETMQGDFSGFYQGVKEVLKAKERLGGIRGAVLELISTEQKYETAIEIALGASAQHVVTDDEQSARKAIQYLKQNSFGRATFLPLSVIRDRQLQSRDAETAARHSSFLGVASELVTFDPAYRSVIQNLLGTVLITEDLKGANELAKLLGHCYRIVTLEGDVVNPGGSMTGGAVKKKNNSLLGRSRELEDVTKRLAEMEEKTALLEQEVKTLKHSIQDMEKKLADLRETGEGLRLKQQDVKGQLYELQVAEKNINTHLELYDQEKSALSESDEERKVRKRKLEEELSAVSEKMKQLEEDIDRLTKQKQTQSSTKESLSNELTELKIAAAKKEQASKGEEDNLARLKKELTETELALKEAKEDLSFLTSEMSSSTSGEEKLEEAAKHKLNDKTKTIELIALRRDQRIKLQHGLDTYERELKEMKRLYKQKTTLLKDEEVKLGRMEVELDNLLQYLREEYSLSFEGAKEKYQLETDPEEARKRVKLIKLAIEELGTVNLGSIDEFERVNERYKFLSEQKEDLTEAKNTLFQVIEEMDEEMTKRFNDTFVQIRSHFDQVFRSLFGGGRAELRLTDPNDLLHSGVEIIAQPPGKKLQNLNLLSGGERALTAIALLFSILKVRPVPFCVLDQVEAALDEANVFRFAQYLKKYSSDTQFIVITHRKGTMEEADVLYGVTMQESGVSKVISVKLEETKEFVQ
modifications: MTSL spin label on the engineered cysteine 643
notes: Smc, Bacillus subtilis (Bsu), cysteine-lite Smc^3S background with R643C and Walker B E1118Q; also called Smc^3S(EQ) single cysteine mutant; source: E. coli BL21-Gold (DE3), purified (HiTrap Blue, Heparin, gel filtration)
B2: Smc^3S(D193C) (natural protein, B. subtilis, UniProt P51834 1-1186, looked up)
chain: B1 chain with D193C, C643R, Q1118E
modifications: MTSL spin label on the engineered cysteine 193
notes: Smc, Bacillus subtilis (Bsu), cysteine-lite Smc^3S background with D193C, without E1118Q; also called wild-type Smc (without E1118Q) with D193C; wt Smc; source: E. coli BL21-Gold (DE3), purified (HiTrap Blue, Heparin, gel filtration)
B3: Smc^3SV(Y944C) (natural protein, B. subtilis, UniProt P51834 1-1186, looked up)
chain: B1 chain with C643R, Y944C, C1114V, Q1118E
modifications: engineered cysteine 944 cross-linked with M3M
notes: Smc, Bacillus subtilis (Bsu), cys-free Smc^3SV background with Y944C; also called Y944C at contact 3^C; source: E. coli BL21-Gold (DE3), purified (HiTrap Blue, Heparin, gel filtration without reducing agent)
B4: Smc^3SV(Q320C) (natural protein, B. subtilis, UniProt P51834 1-1186, looked up)
chain: B1 chain with Q320C, C643R, C1114V, Q1118E
modifications: engineered cysteine 320 cross-linked with M3M
notes: Smc, Bacillus subtilis (Bsu), cys-free Smc^3SV background with Q320C; also called Q320C at contact 4^N; source: E. coli BL21-Gold (DE3), purified (HiTrap Blue, Heparin, gel filtration without reducing agent)
B5: Smc^3SV(A715C) (natural protein, B. subtilis, UniProt P51834 1-1186, looked up)
chain: B1 chain with C643R, A715C, C1114V, Q1118E
modifications: engineered cysteine 715 cross-linked with M3M
notes: Smc, Bacillus subtilis (Bsu), cys-free Smc^3SV background with A715C; also called A715C at contact 7^C; source: E. coli BL21-Gold (DE3), purified (HiTrap Blue, Heparin, gel filtration without reducing agent)
B6: Smc^3SV(D193C) (natural protein, B. subtilis, UniProt P51834 1-1186, looked up)
chain: B1 chain with D193C, C643R, C1114V, Q1118E
modifications: engineered cysteine 193 cross-linked with M3M
notes: Smc, Bacillus subtilis (Bsu), cys-free Smc^3SV background with D193C; also called D193C at contact 1^N; source: E. coli BL21-Gold (DE3), purified (HiTrap Blue, Heparin, gel filtration without reducing agent)

Substitutions are numbered along the chain they refer to. Names and notes keep the numbering of the source.

One series deals with the molecule itself. In words: EPR-DEER; MTSL-labelled single-cysteine Smc, 5 µM, mixed with ScpA and ScpB (similar trends without ScpAB); apo, or with 1 mM ATP and 10 µM dsDNA40; 50 mM Tris-HCl pH 7.5, 50 mM NaCl, 2 mM MgCl2, 40 % ethylene glycol-d6, 90 % deuterium oxide; shock-frozen, DEER traces at 50 K, Q band; spin-spin distances between the two Smc of a dimer.
For B1, the binding result is listed as “binds”.

For the protein B2, the binding result was “binds”.

Another series concerns the molecule itself. In words: cross-linking; purified single-cysteine Smc, 30 µM dimers with 600 µM M3M in 50 mM Tris-HCl pH 7.5, 200 mM NaCl, 4 °C overnight; non-reducing SDS-PAGE, Coomassie; reversed by up to 10 mM DTT.
As to B3, the binding result is given as “binds”.

Take B4: the binding result is recorded as “binds”. As for B5, the binding result is “binds”.

B6: the binding result is “binds”.
